In the DeepSol protein solubility set:

test: soluble on expression in E. coli; label from the status in PepcDB or PDB records

Soluble on expression in E. coli, soluble:
MKVVAAYLLAKLSGNENPSVADLKKIVESVGAEIDQEKIDLFFSLIKDRDVTELIAVGREKMAALSSGGGAVAVASGGGGGAAPAAEPASVESKKKEEEKEESEDDGGMMSLFD
MGKIVLTYRMPHNWNINPFLKEYQRLLQRAIDEIWDNTSWKEKKVKHRYSLGNEEYRYYETIRLIPYFPQSNDFKRGLRNKLLREWPFAKHYVDSAIKTAYSILKSWRQNYLKGRRKRVKPVVKRKFVRVKTTLMKVEGSKIRITIKPREEYLELDFSREWFYERIKDWKVGELIIRERDILLTFSKEVEFSGRIKIGIDSNLTSLDVYHPEKGWIRVDLSELHRISETYDRIIDMLKSIQRKAPKRIGLLLEKYWTRRRNRIEDYLNKLAVQLSREFPDAIFIFEGLNKFKMLQNGSRKFNRKLSRATWKKIVGKLSYRVPIEFVNPAYTSSTCPICGSKLESRNGLVECFNCGFKADRQFVGAFNILMRGLGVALSGVERDDLPPNEPRGELNAMRPKSVVRVDLNGRRFTHIHSLEHHHHHH
SFGCLVAGRLVQTAAQQVAEDKFVFDLPDYESINHVVVFMLGTIPFPEGMGGSVYFSYPDSNGMPVWQLLGFVTNGKPSAIFKISGLKSGEGSQHPFGAMNIVRTPSVAQIGISVELLDSMAQQTPVGNAAVSSVDSFTQFTQKMLDNFYNFASSFAVSQAQMTPSPSEMFIPANVVLKWYENFQRRLAQNPLFWKT
MQAQQLPYEFFSEENAPKWRGLLVPALKKVQGQVHPTLESNDDALQYVEELILQLLNMLCQAQPRSASDVEERVQKSFPHPIDKWAIADAQSAIEKRKRRNPLSLPVEKIHPLLKEVLGYKIDHQVSVYIVAVLEYISADILKLVGNYVRNIRHYEITKQDIKVAMCADKVLMDMFHQDVEDINILSLTDEEPSTSGEQTYYDLVKAFMAEIRQYIRELNLIIKVFREPFVSNSKLFSANDVENIFSRIVDIHELSVKLLGHIEDTVEMTDEGSPHPLVGSCFEDLAEELAFDPYESYARDILRPGFHDRFLSQLSKPGAALYLQSIGEGFKEAVQYVLPRLLLAPVYHCLHYFELLKQLEEKSEDQEDKECLKQAITALLNVQSGMEKICSKSLAKRRLSESACRFYSQQMKGKQLAIKKMNEIQKNIDGWEGKDIGQCCNEFIMEGTLTRVGAKHERHIFLFDGLMICCKSNHGQPRLPGASNAEYRLKEKFFMRKVQINDKDDTNEYKHAFEIILKDENSVIFSAKSAEEKNNWMAALISLQYRSTLERMLDVTMLQEEKEEQMRLPSADVYRFAEPDSEENIIFEENMQPKAGIPIIKAGTVIKLIERLTYHMYADPNFVRTFLTTYRSFCKPQELLSLIIERFEIPEPEPTEADRIAIENGDQPLSAELKRFRKEYIQPVQLRVLNVCRHWVEHHFYDFERDAYLLQRMEEFIGTVRGKAMKKWVESITKIIQRKKIARDNGPGHNITFQSSPPTVEWHISRPGHIETFDLLTLHPIEIARQLTLLESDLYRAVQPSELVGSVWTKEDKEINSPNLLKMIRHTTNLTLWFEKCIVETENLEERVAVVSRIIEILQVFQELNNFNGVLEVVSAMNSSPVYRLDHTFEQIPSRQKKILEEAHELSEDHYKKYLAKLRSINPPCVPFFGIYLTNILKTEEGNPEVLKRHGKELINFSKRRKVAEITGEIQQYQNQPYCLRVESDIKRFFENLNPMGNSMEKEFTDYLFNKSLEIEPRNPKPLPRFPKKYSYPLKSPGVRPSNPRPGT

Soluble on expression in E. coli, not soluble:
MGSDKIHHHHHHMSPHDAKSVIRRFVKEVLNDKNLAVIDEICPPDYVELDPLPGQGPGAAGLKAFLGESFFKAFPDLVWVNEEMVAEGEYVMARSTWTGTHRGEFLGIPPTHRAVKVAAWTIDHVVDGKFVDSRILVDALSLLQQLGALPAWPPPPKTFQAMVDAAYRSVPTIKAADLHRRLKREPDLLIIDVRDAAEVAQTGAIPGAINLSYGTLTYAADHTAPEDWRDPRLADHARPIVTTCGLGPLGALGGGLLHEMGFTNVQILEGGVQAWIDAGLPVVKPGDQ
MGSDKIHHHHHHMQILIYSYNYHPEPIGIAPLMTELAEGLVKRGHQVRVITGMPNYPQRQIYDRYRGKLYVTEQKNGVKIQRSYLRIKSKPNLIDRLLLELSFVFTSLPQALKGERPDVILLTIPPLLVCLPATLIGWLYNCPVVLNVQDILPEAGVRVGLIKNKLMIQALEALEKFAYRTAHTISVIADGFVDNLINKGVPANKIACIPNWVNLNFIRPLPKVNNSWRATHQLDGKFVVLYSGNIALTQGLETVIEAAARLRHLKEIIFVVAGESQALERLQKHCLACGADNVLLLTLQAREKLPQMLAAADVGLIVQKCNVISFNMPSKIPLLLASGRPIVGSVPALGTAAKAIRESGGGVIVEPESAGALAAAVLDLYHQPELAAQLGCKGRKFAVENYSFEQALDRYEELFADAIAKRATNLDILPEMSSKQSLVDI
MGSDKIHHHHHHMNLAGAQLTENELMRLTVSNIAQATSLPALIQEHGRWCCQRCGDRKPVQLPDGRFYCSACVSLGCLTNRDLLYRFEQPHRPVGDGLLTWHGTLTPAQQKASTALQTSVTAGADHLIWAVTGAGKTEMLFPTISQMVQQGKRVAIVSPRIDVIRELAPRLRTAFATTPIAVRYGGHFDQTDSDLVLATVHQLLRFHRAFDLIVVDEVDAFPMAGTPMLHRAVQGARRGPVVYLTATPDRPLKAAMRKGLMVSRLFRRFHGHPLPVPAIRLMNFKKLPSQLPPAIVKWVRDVVATGRSCLLFVPKISWAPQIAALVQRNGLRVAGVASTDRLRAEKITAFRQRQIQVLVTTTILERGVTVSKCAVGVVAAADRAFTASALVQIAGRAGRAADSADDPVVFFTDRYTLALLAAKRQIVMMNGR
MAIYILEDQIIQAKALEVLLTNILHSRNIYNETIHLFSRSDELLQVAHQDAQLNIFFLDIQMNNHIQAGFEVAKEIRKTDSESLIVFISTHTELVLTSYKYMVSALQFIQKNVDFLDFQKEVETCVDAYIQQKENIKTKSEYIIINLKASSIKMDINDIYFFQTEYDHRVSMVGKNFKREFYGTLSKIEQLHPDLIRVHQSIIINKKYASKLNYKTHLLTMRDGTEVPVSRRYYTQVKALFLT
MGSDKIHHHHHHMSQDDHSRDSAGLTYVYPVVSRRAGGVSIGINLNPNNACNWRCIYCQVPDLKRGTAPVIDLVRLEQELRDFLHELVYGNFMQEKVPPETRVIKDIALSGNGEPTSAREFEQIIEIIGRVKADFPLPEELKLVLITNGSLINRMYVQKGLHLMAGLNGEVWFKLDSVTQTGRLRINNTRASLQRMRDNLQTAASLCPTWLQTCVFKLKGVHPDTHETDAYIGFIRTLLQEGTQIRGVLLYTLARPALQPEAPDLSKADPDWIKTFADKIRALGIPVRTAF
MPLTLYQRDDCHLCDQAVEVVAQARAGDFDSVFIDDDAALEAVYGARVPVLRDARGRELEWPFDRVRLRAWLDDDAERLEHHHHHH
MNIHEIRKQFPILDQKVNGKQLVYFDSAATSQKPIQVIETLERYYKEYNSNVHRGVHTLGTKATDAYEGAREKVRKFINAKSMEEIIFTCGTTTALNTVAASYGLENVKEGDEIVISYMEHHSNIIPWQQVAKKTGATLKYLPLQPDGTISIEDARQTITPNTKIVSIMYVSNVLGTINPVKEIGAIAHENGAIMVVDGAQSTPHMKVDVQDLNCDFYALSAHKMCGPTGIGVLYGKKELLNNMEPIEFGGEMIDFVDLQESTWKELPWKFEAGTPIIGNAIGLGAAIDFLEEIGLDNIEKHEHELAQYALERLSEVDGVTIYGPKHRAGLVTFNIEDVHPHDVATVLDVEGIAVRAGHHCAQPLMKWLKASSTARASFYLYNTKEEIDTFVESLIKTKEYFTNVI
SVSGLAILYLRRRRAPLARLRQAIQRCEFFVCYQPIVSLSDGRCVGAEALVRWRQQDGTLILPDQFIPLAERSGLILPITDQVIAASMRELGPLLVADRSLHIAINVSVKDIESGRLLDVLALALQDTGLYRKQLWIEATERSFMDARAAREHIVRLREAGYAVVIDDFGTGYSNLQYLQQLPLDALKIDKSFIDTVGRDVTNTAVASHIIDIAKELGMRTIAEGVEREEQLVYLRARGVDMAQGWLFSSP
